Source: patent US20230106247A1 (L AND L BIO CO LTD NINGBO CHINA, published 2023)
Like-named read-outs stand apart in the source and are kept apart here.

Assays:
Cyno Sirpα L932 = molecular target: T1, Cyno Sirpα L932 (cynomolgus); assay: ELISA
T1 chain: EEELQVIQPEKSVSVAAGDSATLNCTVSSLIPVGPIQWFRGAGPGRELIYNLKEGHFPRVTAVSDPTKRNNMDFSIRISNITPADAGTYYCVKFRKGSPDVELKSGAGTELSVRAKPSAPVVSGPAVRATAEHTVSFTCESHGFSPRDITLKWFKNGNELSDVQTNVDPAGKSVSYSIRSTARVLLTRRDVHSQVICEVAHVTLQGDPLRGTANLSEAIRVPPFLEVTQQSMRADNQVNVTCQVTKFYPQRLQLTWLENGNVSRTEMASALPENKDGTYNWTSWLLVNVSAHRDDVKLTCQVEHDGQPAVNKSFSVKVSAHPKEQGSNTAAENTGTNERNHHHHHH

Cyno Sirpα L933 = molecular target: T2, Cyno Sirpα L933 (cynomolgus); assay: ELISA
T2 construct: extracellular domain; also called Cyno Sirpα polymorphism 2 (L933)

Cyno Sirpα L937 = molecular target: T3, Cyno Sirpα L937 (cynomolgus); assay: ELISA
T3 construct: also called RB3-5; Cyno Sirpα polymorphism 4 (L937)
T3 chain: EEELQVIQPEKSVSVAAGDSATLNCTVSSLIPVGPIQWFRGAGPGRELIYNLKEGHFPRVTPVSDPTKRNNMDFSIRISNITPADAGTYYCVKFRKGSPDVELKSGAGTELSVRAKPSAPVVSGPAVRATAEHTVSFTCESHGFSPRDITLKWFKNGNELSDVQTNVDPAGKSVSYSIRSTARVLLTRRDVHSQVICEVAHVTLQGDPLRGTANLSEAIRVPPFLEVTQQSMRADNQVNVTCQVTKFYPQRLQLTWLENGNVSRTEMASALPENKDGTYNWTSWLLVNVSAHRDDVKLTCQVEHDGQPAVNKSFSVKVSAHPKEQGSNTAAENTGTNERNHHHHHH

Cyno Sirpα L936 = molecular target: T4, Cyno Sirpα L936 (cynomolgus); assay: ELISA
T4 construct: also called RB3-3; Cyno Sirpα polymorphism 3 (L936)
T4 chain: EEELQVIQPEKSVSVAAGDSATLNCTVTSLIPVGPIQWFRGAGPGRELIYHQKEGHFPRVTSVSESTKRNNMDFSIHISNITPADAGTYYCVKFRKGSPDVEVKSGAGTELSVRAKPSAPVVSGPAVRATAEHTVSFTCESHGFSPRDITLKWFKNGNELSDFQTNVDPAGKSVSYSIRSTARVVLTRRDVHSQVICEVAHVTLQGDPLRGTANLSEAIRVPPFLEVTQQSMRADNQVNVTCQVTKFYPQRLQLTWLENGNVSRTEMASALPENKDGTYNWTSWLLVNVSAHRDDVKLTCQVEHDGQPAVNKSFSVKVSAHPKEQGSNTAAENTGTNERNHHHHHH

human Sirpα-V1-his [1] = molecular target: T5, human Sirpα-V1-his (human, UniProt P78324 31-373); assay: blocking ELISA, competitor CD47-hFc
T5 construct: range 31-373; Bought (Sino Biological 11612-H08H) or expressed in-house; also called hSirpα-V1; hSirpα-V1-his
Description: (§1) The recombinant proteins such as human Sirpα-V1-hFc/Sirpα-V1-his were diluted to concentrations of 5 μg/mL or 2 μg/mL respectively with a PBS buffer at pH 7.4, and then added into a 96-well ELISA plate (Corning, CLS3590-100EA) at a volume of 50 μL/well, and placed in an incubator at 37° C. for 2 hours. After the liquid was discarded, the wells were added with a blocking solution of 5% skimmed milk (skimmed milk powder available from Bright Dairy) diluted with PBS at 230 μL/well, and incubated in an incubator at 37° C. for 3 hours, or placed overnight at 4° C. (for 16-18 hours) for blocking. […] The plate was washed for 5 times, added with 50 μL/well of streptavidin-HRP (GenScript, M00091) or anti-his-HRP secondary antibody (GenScript, A00612) diluted at 1:1000, incubated at 37° C. for 1 hour, and then washed with PBST for 5 times. Each well was added with 50 μL of TMB (Surmodic, Cat #: TTMB-1000-01) for color development, and added with 50 μL/well of 1 M H₂SO₄ to stop the reaction. The readings on a microplate reader (MultiskanGO Thermo, Model 51119200) were subjected to data analysis by GraphPad prism 5.

human Sirpα-V1-his [2] = molecular target: T5, human Sirpα-V1-his; assay: blocking ELISA, competitor CD47-hFc; remark: listed apart in the source
Description: as §1, with “5. […]” for “5.”

[3] = molecular target: T6, human T cells (expressing Sirpγ) (human, UniProt Q9P1W8 29-387); assay: flow cytometry on PBMC
T6 construct: whole, on cells; The target as printed is the cell; also called human PBMCs (T cells)

human Sirpα-V1-hFc [4] = molecular target: T7, human Sirpα-V1-hFc (human, UniProt P78324 31-373); assay: blocking ELISA, competitor CD47-his
T7 construct: range 31-373; also called hSirpα (dimer); hSirpα-V1-hFc (dimer); not shown: human IgG1 Fc region at the C-terminus
Description: as §1

human Sirpα-V1-his [5] = molecular target: T5, human Sirpα-V1-his; assay: ELISA
[6] = molecular target: T8, human Sirpα-V1 on CHO-K1 cells (CHO-K1 hSirpα+ cell line) (human, UniProt P78324 31-504); assay: cell ELISA on CHO-K1 hSirpα+ cells
T8 construct: whole, on cells; also called hSirpα-v1+ cell strain
From the text: The readings on a microplate reader (MultiskanGO Thermo, Model 51119200) were subjected to data analysis by GraphPad prism 5.
The light and heavy chain variable region sequences of the aforementioned antibody of the present disclosure and the constant regions of different IgG types, for example human IgG1 (hIgG1), human IgG2 (hIgG2), human IgG3 (hIgG3) or human IgG4 (hIgG4), human light chain κ and λ types; murine mIgG1, mIgG2 or mIgG3, murine light chain κ and λ types, etc. were recombined, expressed and purified to obtain an entire human-murine chimeric antibody and a murine antibody.

human Sirpα-V1-his [7] = molecular target: T5, human Sirpα-V1-his; assay: ELISA; remark: listed apart in the source
Description: (§2) Different antigens (recombinant proteins) such as the human Sirpα-V1-hFc, Sirpα-V1-his, Sirpα-V2-his, Sirpβ-his, Sirpγ-his, monkey Sirpα-his (cynoSirpα-his) or NOD-mSirpα-his described in Example 1 were diluted with a PBS buffer at pH7.4 to concentrations of 1 μg/mL, 2 μg/mL or 5 μg/mL, added into a 96-well ELISA plate (Corning, CLS3590-100EA) at a volume of 50 μL/well, and placed in an incubator at 37° C. for 2 hours. After the liquid was discarded, the wells were added with a blocking solution of 5% skimmed milk (skimmed milk powder available from Bright Dairy) diluted with PBS at 230 μL/well, and incubated in an incubator at 37° C. for 3 hours, or placed overnight at 4° C. (for 16-18 hours) for blocking. […] The plated was washed with PBST for 5 times, then added with 50 μL/well of TMB chromogenic substrate (KPL, Cat #: 52-00-03), incubated at room temperature for 10-15 min, added with 50 μL/well of 1 M H₂SO₄ to stop the reaction, and read by a […] Go microplate reader (ThermoFisher, Cat #: 51119200) for the absorbance value at 450 nm, and then a clone with high binding activity was selected or a EC₅₀ value was calculated according to the OD value. […]

human Sirpα-V2-his = human Sirpα-V2-his (human); assay: ELISA
Description: as §2

human Sirpα-V1-hFc [8] = molecular target: T7, human Sirpα-V1-hFc; assay: blocking ELISA, competitor CD47-his; remark: listed apart in the source
Description: as §1, with “5. […]” for “5.”

Sequence of human Sirpα-V2-his (human) (chain, as listed by the source): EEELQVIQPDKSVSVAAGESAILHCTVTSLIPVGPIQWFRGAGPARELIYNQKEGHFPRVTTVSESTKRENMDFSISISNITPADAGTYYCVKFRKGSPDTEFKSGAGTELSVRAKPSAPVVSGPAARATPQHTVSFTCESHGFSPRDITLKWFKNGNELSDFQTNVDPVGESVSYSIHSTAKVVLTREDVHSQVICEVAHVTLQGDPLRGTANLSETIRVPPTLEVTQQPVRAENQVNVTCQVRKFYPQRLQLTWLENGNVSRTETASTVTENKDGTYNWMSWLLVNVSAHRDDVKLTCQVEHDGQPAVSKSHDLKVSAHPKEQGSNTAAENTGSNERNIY
T6 sequence (Q9P1W8 29-387): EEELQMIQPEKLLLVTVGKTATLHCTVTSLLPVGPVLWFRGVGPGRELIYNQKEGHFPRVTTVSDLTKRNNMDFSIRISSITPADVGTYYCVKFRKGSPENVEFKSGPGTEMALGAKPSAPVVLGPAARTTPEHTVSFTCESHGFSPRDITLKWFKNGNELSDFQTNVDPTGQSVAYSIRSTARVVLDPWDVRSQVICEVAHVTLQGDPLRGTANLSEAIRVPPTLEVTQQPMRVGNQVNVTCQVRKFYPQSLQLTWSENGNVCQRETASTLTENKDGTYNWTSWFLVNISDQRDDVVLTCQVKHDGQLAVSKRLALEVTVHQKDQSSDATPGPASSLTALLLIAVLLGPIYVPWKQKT

- EC50 (Cyno Sirpα L932): 0.1 nM
- EC50 (Cyno Sirpα L933): 0.14 nM
- EC50 (Cyno Sirpα L937): 0.099 nM
- EC50 (Cyno Sirpα L936): 0.099 nM
- IC50 (human Sirpα-V1-his [1]): 9.98 nM
- IC50 (human Sirpα-V1-his [2]): 5.54 nM
- binding result [3]: no binding (tested: 10 µg/mL)
- IC50 (human Sirpα-V1-hFc [4]): 5.48 nM
- EC50 (human Sirpα-V1-his [5]): 0.093 nM
- EC50 [6]: 0.29 nM
- EC50 (human Sirpα-V1-his [7]): 0.16 nM
- EC50 (human Sirpα-V2-his): 0.14 nM
- IC50 (human Sirpα-V1-hFc [8]): 5.7 nM
B1: human-murine chimeric antibody mab14c (antibody, human IgG4 S228P, kappa, V domains shown)
VH: QVHLQQPGAELVKPGASVKLSCKASGYNFNIYWINWVKQRPGQGLEWIGNIYPSSISTNYNEKFKTKATLTVDKSSNTVYMQFSSLTSEDSAVYYCARSEGTYYGGRYEGDWFGYWGQGTLVTVSA
VL: DIQMTQTTSSLSASLGDRVTISCRASQDIRNYLNWYQQKPDGTVKLLIYFTSTLHSGVPSRFSGSGSGTDYSLTISNLEQEDIATYFCQQGNTLPWTFGGGTKLEIKR
notes: hIgG4, κ
